Data set [1] deals with T1, alpha-thrombin (UniProt P00734;P00734 P00734:328-363,P00734:364-622). Kind of data set: nanowire fluorescence beacon; highest signal to noise; thrombin detected at about 50 nM in buffer and in 50% serum (detection limit, not Kd); greatest signal wi.
Data set [2] has as its target ovalbumin (UniProt P01012 P01012:2-386). Kind of data set: negative control, little signal; nanowire fluorescence beacon. The note with it: label: TAMRA 3'; no hairpin. The procedure:
Probe assembly was performed as for standard molecular beacons. The assay was performed by diluted the thrombin protein with Tris-HCl buffer to attain desired concentration. Then 50 μl thrombin protein solution was mixed with 3 μl nanowire assembled aptamer probe in a microfuge tube and incubated for 30 min, with rotation at room temperature. The contents were centrifuged, washed with 0.1% Tween-20/PBS once and fluorescence images acquired using fluorescence microscope described above.
As expected no fluorescence was observed, due to the fluorescence quenching of the TAMRA by the nanowire. However, when the thrombin protein was added to the reaction by incubating 10 μg/ml thrombin with 3 μl nanowire-Apt1 assembled probes for 30 min, fluorescence was restored. An investigation into the effect of the hairpin in the beacons was carried out. […] This sequence was therefore used for subsequent experiments. […] When this experiment was repeated in 50% serum, the detection limit was again approximately 50 nM (FIG. 15B). These are very encouraging results. Finally, it is important to understand the specificity of the assay, in addition to the sensitivity. THR Apt 3 assembled nanowires were incubated with a pair of homologous proteins, α Thrombin and β Thrombin, and with ovalbumin as a negative control, and a blank (labeled control). […]

Data set [3] has as its target T1, alpha-thrombin. Kind of data set: fluorescence restored on nanowire beacon with 10 ug/ml thrombin (form not specified), Tris-HCl, 30 min, room temperature.

ovalbumin, sequence (P01012 2-386, one chain of several): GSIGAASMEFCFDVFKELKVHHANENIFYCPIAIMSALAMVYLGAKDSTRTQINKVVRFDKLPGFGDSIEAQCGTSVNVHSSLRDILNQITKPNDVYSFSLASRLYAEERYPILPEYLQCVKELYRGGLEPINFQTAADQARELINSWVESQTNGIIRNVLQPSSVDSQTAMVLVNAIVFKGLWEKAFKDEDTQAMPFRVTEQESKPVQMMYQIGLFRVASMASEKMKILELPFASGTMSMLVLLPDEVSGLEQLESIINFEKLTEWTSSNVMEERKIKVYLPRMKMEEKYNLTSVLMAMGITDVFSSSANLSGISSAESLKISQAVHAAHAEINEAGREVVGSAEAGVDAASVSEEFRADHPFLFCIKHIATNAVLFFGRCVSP

Take TGGTTGGTGTGGTTGG (ssDNA, 5' thiol-(CH2)6, 3' (CH2)7-TAMRA, assembled on Au/Ag nanowires) [THR Apt3]: the binding result in data set [1] is listed as “binds”; in data set [2], “no binding”.

Take CCAACGGTTGGTGTGGTTGG (ssDNA, 5' thiol-(CH2)6, 3' (CH2)7-TAMRA, assembled on Au/Ag nanowires) [THR Apt1]: in data set [3], the binding result is “binds”.

The record behind these values is patent US20090298197, “SERS-BASED METHODS FOR DETECTION OF BIOAGENTS” (OXONICA MATERIALS INC., published 2009).
